# Laboratory results as given in publication PMC8298264, “Function of cofactor Akirin2 in the regulation of gene expression in model human neutrophil-like HL60 cells” (Bioscience Reports, 2021).
# B1: sp¦Q9UFN0¦NPS3A_HUMAN (protein, UniProt Q9UFN0 1-247, looked up)
# Protein NipSnap homolog 3A: MLVLRSALTRALASRTLAPQMCSSFATGPRQYDGIFYEFRSYYLKPSKMNEFLENFEKNAHLRTAHSELVGYWSVEFGGRMNTVFHIWKYDNFAHRTEVRKALAKDKEWQEQFLIPNLALIDKQESEITYLVPWCKLEKPPKEGVYELATFQMKPGGPALWGDAFKRAVHAHVNLGYTKLVGVFHTEYGALNRVHVLWWNESADSRAAGRHKSHEDPRVVAAVRESVNYLVSQQNMLLIPTSFSPLK
# B2: sp¦O75533¦SF3B1_HUMAN (protein, UniProt O75533 1-1304, looked up)
# Splicing factor 3B subunit 1: MAKIAKTHEDIEAQIREIQGKKAALDEAQGVGLDSTGYYDQEIYGGSDSRFAGYVTSIAATELEDDDDDYSSSTSLLGQKKPGYHAPVALLNDIPQSTEQYDPFAEHRPPKIADREDEYKKHRRTMIISPERLDPFADGGKTPDPKMNARTYMDVMREQHLTKEEREIRQQLAEKAKAGELKVVNGAAASQPPSKRKRRWDQTADQTPGATPKKLSSWDQAETPGHTPSLRWDETPGRAKGSETPGATPGSKIWDPTPSHTPAGAATPGRGDTPGHATPGHGGATSSARKNRWDETPKTERDTPGHGSGWAETPRTDRGGDSIGETPTPGASKRKSRWDETPASQMGGSTPVLTPGKTPIGTPAMNMATPTPGHIMSMTPEQLQAWRWEREIDERNRPLSDEELDAMFPEGYKVLPPPAGYVPIRTPARKLTATPTPLGGMTGFHMQTEDRTMKSVNDQPSGNLPFLKPDDIQYFDKLLVDVDESTLSPEEQKERKIMKLLLKIKNGTPPMRKAALRQITDKAREFGAGPLFNQILPLLMSPTLEDQERHLLVKVIDRILYKLDDLVRPYVHKILVVIEPLLIDEDYYARVEGREIISNLAKAAGLATMISTMRPDIDNMDEYVRNTTARAFAVVASALGIPSLLPFLKAVCKSKKSWQARHTGIKIVQQIAILMGCAILPHLRSLVEIIEHGLVDEQQKVRTISALAIAALAEAATPYGIESFDSVLKPLWKGIRQHRGKGLAAFLKAIGYLIPLMDAEYANYYTREVMLILIREFQSPDEEMKKIVLKVVKQCCGTDGVEANYIKTEILPPFFKHFWQHRMALDRRNYRQLVDTTVELANKVGAAEIISRIVDDLKDEAEQYRKMVMETIEKIMGNLGAADIDHKLEEQLIDGILYAFQEQTTEDSVMLNGFGTVVNALGKRVKPYLPQICGTVLWRLNNKSAKVRQQAADLISRTAVVMKTCQEEKLMGHLGVVLYEYLGEEYPEVLGSILGALKAIVNVIGMHKMTPPIKDLLPRLTPILKNRHEKVQENCIDLVGRIADRGAEYVSAREWMRICFELLELLKAHKKAIRRATVNTFGYIAKAIGPHDVLATLLNNLKVQERQNRVCTTVAIAIVAETCSPFTVLPALMNEYRVPELNVQNGVLKSLSFLFEYIGEMGKDYIYAVTPLLEDALMDRDLVHRQTASAVVQHMSLGVYGFGCEDSLNHLLNYVWPNVFETSPHVIQAVMGALEGLRVAIGPCRMLQYCLQGLFHPARKVRDVYWKIYNSIYIGSQDALIAHYPRIYNDDKNTYIRYELDYIL
# B3: sp¦Q14C86¦GAPD1_HUMAN (protein, UniProt Q14C86 1-1478, looked up)
# GTPase-activating protein and …: MVKLDIHTLAHHLKQERLYVNSEKQLIQRLNADVLKTAEKLYRTAWIAKQQRINLDRLIITSAEASPAECCQHAKILEDTQFVDGYKQLGFQETAYGEFLSRLRENPRLIASSLVAGEKLNQENTQSVIYTVFTSLYGNCIMQEDESYLLQVLRYLIEFELKESDNPRRLLRRGTCAFSILFKLFSEGLFSAKLFLTATLHEPIMQLLVEDEDHLETDPNKLIERFSPSQQEKLFGEKGSDRFRQKVQEMVESNEAKLVALVNKFIGYLKQNTYCFPHSLRWIVSQMYKTLSCVDRLEVGEVRAMCTDLLLACFICPAVVNPEQYGIISDAPINEVARFNLMQVGRLLQQLAMTGSEEGDPRTKSSLGKFDKSCVAAFLDVVIGGRAVETPPLSSVNLLEGLSRTVVYITYSQLITLVNFMKSVMSGDQLREDRMALDNLLANLPPAKPGKSSSLEMTPYNTPQLSPATTPANKKNRLPIATRSRSRTNMLMDLHMDHEGSSQETIQEVQPEEVLVISLGTGPQLTPGMMSENEVLNMQLSDGGQGDVPVDENKLHGKPDKTLRFSLCSDNLEGISEGPSNRSNSVSSLDLEGESVSELGAGPSGSNGVEALQLLEHEQATTQDNLDDKLRKFEIRDMMGLTDDRDISETVSETWSTDVLGSDFDPNIDEDRLQEIAGAAAENMLGSLLCLPGSGSVLLDPCTGSTISETTSEAWSVEVLPSDSEAPDLKQEERLQELESCSGLGSTSDDTDVREVSSRPSTPGLSVVSGISATSEDIPNKIEDLRSECSSDFGGKDSVTSPDMDEITHGAHQLTSPPSQSESLLAMFDPLSSHEGASAVVRPKVHYARPSHPPPDPPILEGAVGGNEARLPNFGSHVLTPAEMEAFKQRHSYPERLVRSRSSDIVSSVRRPMSDPSWNRRPGNEERELPPAAAIGATSLVAAPHSSSSSPSKDSSRGETEERKDSDDEKSDRNRPWWRKRFVSAMPKAPIPFRKKEKQEKDKDDLGPDRFSTLTDDPSPRLSAQAQVAEDILDKYRNAIKRTSPSDGAMANYESTGDNHDRDLSSKLLYHSDKEVMGDGESAHDSPRDEALQNISADDLPDSASQAAHPQDSAFSYRDAKKKLRLALCSADSVAFPVLTHSTRNGLPDHTDPEDNEIVCFLKVQIAEAINLQDKNLMAQLQETMRCVCRFDNRTCRKLLASIAEDYRKRAPYIAYLTRCRQGLQTTQAHLERLLQRVLRDKEVANRYFTTVCVRLLLESKEKKIREFIQDFQKLTAADDKTAQVEDFLQFLYGAMAQDVIWQNASEEQLQDAQLAIERSVMNRIFKLAFYPNQDGDILRDQVLHEHIQRLSKVVTANHRALQIPEVYLREAPWPSAQSEIRTISAYKTPRDKVQCILRMCSTIMNLLSLANEDSVPGADDFVPVLVFVLIKANPPCLLSTVQYISSFYASCLSGEESYWWMQFTAAVEFIKTIDDRK
# B4: sp¦P10809¦CH60_HUMAN (protein, UniProt P10809 27-573, looked up)
# 60 kDa heat shock protein, …: AKDVKFGADARALMLQGVDLLADAVAVTMGPKGRTVIIEQSWGSPKVTKDGVTVAKSIDLKDKYKNIGAKLVQDVANNTNEEAGDGTTTATVLARSIAKEGFEKISKGANPVEIRRGVMLAVDAVIAELKKQSKPVTTPEEIAQVATISANGDKEIGNIISDAMKKVGRKGVITVKDGKTLNDELEIIEGMKFDRGYISPYFINTSKGQKCEFQDAYVLLSEKKISSIQSIVPALEIANAHRKPLVIIAEDVDGEALSTLVLNRLKVGLQVVAVKAPGFGDNRKNQLKDMAIATGGAVFGEEGLTLNLEDVQPHDLGKVGEVIVTKDDAMLLKGKGDKAQIEKRIQEIIEQLDVTTSEYEKEKLNERLAKLSDGVAVLKVGGTSDVEVNEKKDRVTDALNATRAAVEEGIVLGGGCALLRCIPALDSLTPANEDQKIGIEIIKRTLKIPAMTIAKNAGVEGSLIVEKIMQSSSEVGYDAMAGDFVNMVEKGIIDPTKVVRTALLDAAGVASLLTTAEVVVTEIPKEEKDPGMGAMGGMGGGMGGGMF
# B5: sp¦Q92990¦GLMN_HUMAN (protein, UniProt Q92990 2-594, looked up)
# Glomulin: AVEELQSIIKRCQILEEQDFKEEDFGLFQLAGQRCIEEGHTDQLLEIIQNEKNKVIIKNMGWNLVGPVVRCLLCKDKEDSKRKVYFLIFDLLVKLCNPKELLLGLLELIEEPSGKQISQSILLLLQPLQTVIQKLHNKAYSIGLALSTLWNQLSLLPVPYSKEQIQMDDYGLCQCCKALIEFTKPFVEEVIDNKENSLENEKLKDELLKFCFKSLKCPLLTAQFFEQSEEGGNDPFRYFASEIIGFLSAIGHPFPKMIFNHGRKKRTWNYLEFEEEENKQLADSMASLAYLVFVQGIHIDQLPMVLSPLYLLQFNMGHIEVFLQRTEESVISKGLELLENSLLRIEDNSLLYQYLEIKSFLTVPQGLVKVMTLCPIETLRKKSLAMLQLYINKLDSQGKYTLFRCLLNTSNHSGVEAFIIQNIKNQIDMSLKRTRNNKWFTGPQLISLLDLVLFLPEGAETDLLQNSDRIMASLNLLRYLVIKDNENDNQTGLWTELGNIENNFLKPLHIGLNMSKAHYEAEIKNSQEAQKSKDLCSITVSGEEIPNMPPEMQLKVLHSALFTFDLIESVLARVEELIEIKTKSTSEENIGIK
# B6: sp¦P23634¦AT2B4_HUMAN (protein, UniProt P23634 1-1241, looked up)
# Plasma membrane …: MTNPSDRVLPANSMAESREGDFGCTVMELRKLMELRSRDALTQINVHYGGVQNLCSRLKTSPVEGLSGNPADLEKRRQVFGHNVIPPKKPKTFLELVWEALQDVTLIILEIAAIISLVLSFYRPAGEENELCGQVATTPEDENEAQAGWIEGAAILFSVIIVVLVTAFNDWSKEKQFRGLQCRIEQEQKFSIIRNGQLIQLPVAEIVVGDIAQVKYGDLLPADGILIQGNDLKIDESSLTGESDHVKKSLDKDPMLLSGTHVMEGSGRMVVTAVGVNSQTGIILTLLGVNEDDEGEKKKKGKKQGVPENRNKAKTQDGVALEIQPLNSQEGIDNEEKDKKAVKVPKKEKSVLQGKLTRLAVQIGKAGLLMSALTVFILILYFVIDNFVINRRPWLPECTPIYIQYFVKFFIIGITVLVVAVPEGLPLAVTISLAYSVKKMMKDNNLVRHLDACETMGNATAICSDKTGTLTMNRMTVVQAYIGGIHYRQIPSPDVFLPKVLDLIVNGISINSAYTSKILPPEKEGGLPRQVGNKTECALLGFVTDLKQDYQAVRNEVPEEKLYKVYTFNSVRKSMSTVIRNPNGGFRMYSKGASEIILRKCNRILDRKGEAVPFKNKDRDDMVRTVIEPMACDGLRTICIAYRDFDDTEPSWDNENEILTELTCIAVVGIEDPVRPEVPDAIAKCKQAGITVRMVTGDNINTARAIATKCGILTPGDDFLCLEGKEFNRLIRNEKGEVEQEKLDKIWPKLRVLARSSPTDKHTLVKGIIDSTVGEHRQVVAVTGDGTNDGPALKKADVGFAMGIAGTDVAKEASDIILTDDNFTSIVKAVMWGRNVYDSISKFLQFQLTVNVVAVIVAFTGACITQDSPLKAVQMLWVNLIMDTFASLALATEPPTESLLKRRPYGRNKPLISRTMMKNILGHAFYQLIVIFILVFAGEKFFDIDSGRKAPLHSPPSQHYTIVFNTFVLMQLFNEINSRKIHGEKNVFSGIYRNIIFCSVVLGTFICQIFIVEFGGKPFSCTSLSLSQWLWCLFIGIGELLWGQFISAIPTRSLKFLKEAGHGTTKEEITKDAEGLDEIDHAEMELRRGQILWFRGLNRIQTQIDVINTFQTGASFKGVLRRQNMGQHLDVKLVPSSSYIKVVKAFHSSLHESIQKPYNQKSIHSFMTHPEFAIEEELPRTPLLDEEEEENPDKASKFGTRVLLLDGEVTPYANTNNNAVDCNQVQLPQSDSSLQSLETSV
# Tested on: human HL60 cells
# Test: SWATH-MS proteomics, differential protein representation, akirin2 KO vs WT HL60 cells
# Assay type: cell-based
# Details: SWATH-MS, akirin2 KO vs WT HL60 cells, under-represented in KO
# In short: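 Differential representation compares akirin2 KO with WT HL60 across three biological replicates, 5 µg digest each, acquired by data-independent SWATH on a 120-min gradient. Library built from combined IDA runs searched with Paragon; proteins accepted at 1% FDR, with total-area-sum normalization.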
Molecule,Fold Change,Log (Fold Change)
B1,0.7109,-0.1482
B2,0.7121,-0.1475
B3,0.7165,-0.1448
B4,0.7233,-0.1407

# Same assay, conditions: akirin2 KO vs WT HL60 cells; sheet "Under-represented in KO"
Molecule,Fold Change,Log (Fold Change)
B5,0.3264,-0.4863
B6,0.3316,-0.4794
